Assay results from patent publication US7429385.

Biological target: MOLT4 receptor (putative E2 receptor on human lymphoma T-cells, MOLT-4 cells) (human)
Test: cytofluorimetric binding assay on MOLT-4 cells

intracellularly produced truncated HCV E2 terminating at amino acid 715 (E2715), from CHO cell lysate (from UniProt P26664 384-715)
fold more efficient binding to MOLT-4 cells than secreted E2: 30 fold
